Results as given in patent US8728472B2, “Antibodies that bind selectively to P25 and uses therefor” (The Board of Regents of the University of Texas System, priority 2009, dated 2014).
Entries after “also recorded” stand apart in the source; their conditions may differ.

What was measured:
p25 [1] = target: T1, p25 (Rattus norvegicus, UniProt P61810); assay: Immunoblotting and immunostaining for p25 (p25-GFP lysates, transfected HEK293T cells, ischemic tissue); assay type: binding; conditions: compared with commercial p35/p25 Ab
T1 construct: cleaves p35, thereby removing the first 100 amino acids to produce p25; expressed in transfected cells; host or cells: HEK293T; also purified Sf9 protein, p25-GFP transgenic mouse striatum, rat ischemic brain and neurons
T1 sequence (P61810 99-307): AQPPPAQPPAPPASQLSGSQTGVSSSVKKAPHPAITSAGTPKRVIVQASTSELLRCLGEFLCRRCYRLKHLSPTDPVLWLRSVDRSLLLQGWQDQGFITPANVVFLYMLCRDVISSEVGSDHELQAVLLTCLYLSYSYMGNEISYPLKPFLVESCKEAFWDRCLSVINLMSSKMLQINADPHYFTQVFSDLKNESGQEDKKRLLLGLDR
From the text: (§1) Cdk5/p25 proteins (FIG. 2A) were co-expressed in Sf9 insect cells from a Baculovirus vector (pBAC4X-1) encoding the genes for the human proteins. […] The proteins were absorbed to a Ni-NTA column, eluted and further purified by FPLC S-sepharose HP column chromatography. Mice received intrasplenic injections of pure Cdk5/p25 conjugated to biodegradable microparticles to optimize antigen presentation. ELISA assays were used to initially screen mice sera for antibody production using pure Cdk5/p25 followed by Western blotting of the pure Cdk5/p25 and striatal cell lysates from a p25 (p25-GFP) over-expressing mouse line (FIG. 2B). When both assays yielded positive results, a hemisplenectomy was performed and B cells were fused with SP2/0-IL6 myeloma cells to make hybridomas. Hybridoma culture supernatants were screened by ELISA, immunoblotting of pure protein (FIG. 2A), and immunohistochemical staining of HEK293T cultured cells transfected with Cdk5, p35, Cdk5/p35, p25, Cdk5/p25, or negative control (blank) eukaryotic expression plasmids (FIG. 2C). Hybridoma lines producing antibodies selective for p25 were re-derived and screens were repeated.
(§2) Abs to p35, DARPP-32 (Nishi et al., 1997), GFAP, and p25 were used to stain rat coronal cryosections (20 μm) from control and stroked hemispheres. […] See Methods for further details.

p25 [2] = assay: as above; assay type: binding
From the text: as §1, §2

p35 = target: T2, p35 (Mus musculus, UniProt P61809); assay: Immunoblotting and immunostaining for p35; assay type: binding; conditions: immunoblot
T2 construct: from tissue; host or cells: striatal homogenates of p25-GFP over-expressing mice
T2 sequence (P61809 whole entry): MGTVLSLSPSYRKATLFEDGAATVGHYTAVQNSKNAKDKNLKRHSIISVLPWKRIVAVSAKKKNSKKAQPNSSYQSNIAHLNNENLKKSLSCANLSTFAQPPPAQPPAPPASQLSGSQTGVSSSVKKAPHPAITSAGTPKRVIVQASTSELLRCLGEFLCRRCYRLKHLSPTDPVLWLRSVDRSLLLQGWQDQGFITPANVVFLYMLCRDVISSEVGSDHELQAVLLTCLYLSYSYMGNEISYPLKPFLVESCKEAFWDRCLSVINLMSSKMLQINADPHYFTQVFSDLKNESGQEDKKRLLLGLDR
From the text: as §1, §2

Cdk5/p25 = target: T3, Cdk5/p25 (Homo sapiens, UniProt Q15078); assay: Inhibition of Cdk5/p25 kinase activity by monoclonal antibody; assay type: biochemical; conditions: FIG. 4
T3 construct: cleaves p35, thereby removing the first 100 amino acids to produce p25
T3 sequence (Q15078 99-307 limits assumed): as the sequence (P61810 99-307) above, with V23G, I35V counted along it

PKA = assay: Effect of monoclonal antibody on PKA activity; assay type: biochemical; conditions: FIG. 4
[3] = listed as anti-p25 monoclonal antibody

B1: 1C4: monoclonal antibody binding p25 but not p35, produced by hybridoma cell line 1C4 (ATCC PTA-8555) (antibody, V domains shown)
VH: QIQLEESGPELRKPGETVRISCKASGYTFTTAGMQWVQKMPGTGLKWIGWINTHSGVPKYAGEFTGRFDFSLETSASTAYLQIVNLKNEDTATYFCARYGKFGEMDYWGQGTSVTVSS
VL: IVMTQSPASLAVSLGQRATISCRSSETVDSDGNSFMHWYQQKPGQSPKLLLYLASTLESGVPARFSGSGSRTDFTLTIDPVEADDAATYYCHQNNEDPTFGGGTKLEIKR
p25 [1]
  sensitivity of detection of p25 generated by MCAO: greater sensitivity than a commercial p35/p25 Ab
p25 [2]; immunoblot of lysates from GFP-p25 over-expressing mice, focal ischemia in brain slices and cultured neurons, listed as anti-p25 monoclonal antibody
  detection of p25: detects transgenic p25-GFP; also recorded: strongly detects p25 generated in response to focal ischemia
p25 [2]; transfected cells, p25 vs p35 expression vector
  staining of cells transfected with expression vectors: only stains cells transfected with an expression vector for p25 but not p35
p35
  reactivity with p35: does not react with p35 at all
Cdk5/p25
  inhibition of Cdk5/p25 activity: almost completely inhibits Cdk5 activity
Cdk5/p25; [3]
  inhibition of Cdk5/p25 activity: inhibits Cdk5/p25 activity
PKA
  effect on PKA activity: no effect on PKA
PKA; [3]
  effect on PKA activity: little or no effect on PKA activity
